Measurements from PMC4984425.

Assays:
[1] = biological target: FITC-labeled PDIA6 (mouse) (UniProt Q922R8); test: MST
[2] = biological target: His-tagged IRE1α ER luminal domain (IRE1-NLD); test: SPR

Kd [1] [nM]	Kd [2] [nM]	Molecule
20	–	His-tagged IRE1α ER luminal domain (IRE1-NLD) (domain or fragment)
–	22	PDIA6 isolated from mouse liver microsomal fraction (natural protein) LYSSSDDVIELTPSNFNREVIQSDGLWLVEFYAPWCGHCQRLTPEWKKAATALKDVVKVGAVNADKHQSLGGQYGVQGFPTIKIFGANKNKPEDYQGGRTGEAIVDAALSALRQLVKDRLGGRSGGYSSGKQGRGDSSSKKDVVELTDDTFDKNVLDSEDVWMVEFYAPWCGHCKNLEPEWAAAATEVKEQTKGKVKLAAVDATVNQVLASRYGIKGFPTIKIFQKGESPVDYDGGRTRSDIVSRALDLFSDNAPPPELLEIINEDIAKKTCEEHQLCVVAVLPHILDTGAAGRNSYLEVLLKLADKYKKKMWGWLWTEAGAQYELENALGIGGFGYPAMAAINARKMKFALLKGSFSEQGINEFLRELSFGRGSTAPVGGGSFPTITPREPWDGKDGELPVEDDIDLSDVELDDLEKDEL
